Tests used:
[1] = target: human CD147 on the surface of human cell lines (human) (UniProt P35613); assay: FACS on human KYSE-70 esophageal epithelial cell line, Alexa Fluor 647 goat anti-human IgG detection
[2] = target: human CD147 on the surface of human cell lines (human) (UniProt P35613); assay: cell-based or functional assay

B1: humanized anti-human CD147 monoclonal antibody hu 3A11 Lc1/Hc1 (antibody, V domains shown)
VH: EVQLVESGGGLVQPGGSLRLSCAASGFTFSNYWMDWVRQAPGKGLEWVGEIRLKSYNYATHYAASVKGRFTISRDDSKNSVYLQMNSLKTEDTAVYYCTAAGTDYWGQGTLVTVSS
VL: DIQMTQSPSSLSASVGDRVTITCRASQSVRTDVGWYQQKPGKAPKLLIYYSSNRYTGVPSRFSGSGSGTDFTLTISSLQPEDFATYYCQQDYSSPYTFGQGTKLEIK
**Q.** How did the Kd [1] turn out when B1 was run?
**A.** 1.65 nM

**Q.** What about the EC50 of cytotoxicity, A253 cells (with vc-MMAE secondary antibody) [2] of the same binder?
**A.** < 1 nM

**Q.** What about the EC50 of cytotoxicity, BHY cells (with vc-MMAE secondary antibody) [2] of the same binder?
**A.** < 1 nM

**Q.** What about the EC50 of cytotoxicity, Detroit562 cells (with vc-MMAE secondary antibody) [2] of the same binder?
**A.** 0.008 nM

**Q.** What about the EC50 of cytotoxicity, EFO-21 cells (with vc-MMAE secondary antibody) [2] of the same binder?
**A.** 1.4 nM

**Q.** And the EC50 of cytotoxicity, H69 cells (with vc-MMAE secondary antibody) [2]?
**A.** 1 nM

**Q.** What about the EC50 of cytotoxicity, H292 cells (with vc-MMAE secondary antibody) [2] of the same binder?
**A.** 0.07 nM

**Q.** What about the EC50 of cytotoxicity, H358 cells (with vc-MMAE secondary antibody) [2] of the same binder?
**A.** 0.09 nM

**Q.** What about the EC50 of cytotoxicity, H520 cells (with vc-MMAE secondary antibody) [2] of the same binder?
**A.** 11.2 nM

**Q.** And the EC50 of cytotoxicity, H1581 cells (with vc-MMAE secondary antibody) [2]?
**A.** 0.039 nM

**Q.** And the EC50 of cytotoxicity, H1975 cells (with vc-MMAE secondary antibody) [2]?
**A.** 0.09 nM

**Q.** And the EC50 of cytotoxicity, H2405 cells (with vc-MMAE secondary antibody) [2]?
**A.** 0.3 nM

**Q.** And the EC50 of cytotoxicity, H2444 cells (with vc-MMAE secondary antibody) [2]?
**A.** 1.8 nM

**Q.** And the EC50 of cytotoxicity, HCC 70 cells (with vc-MMAE secondary antibody) [2]?
**A.** 0.94 nM

**Q.** What about the EC50 of cytotoxicity, HCC1143 cells (with vc-MMAE secondary antibody) [2] of the same binder?
**A.** < 1 nM

**Q.** What about the EC50 of cytotoxicity, HCC 1806 cells (with vc-MMAE secondary antibody) [2] of the same binder?
**A.** 0.68 nM

**Q.** And the EC50 of cytotoxicity, HCC1937 cells (with vc-MMAE secondary antibody) [2]?
**A.** < 1 nM

**Q.** What about the EC50 of cytotoxicity, HCC1954 cells (with vc-MMAE secondary antibody) [2] of the same binder?
**A.** < 1 nM

**Q.** And the EC50 of cytotoxicity, HCT 116 cells (with vc-MMAE secondary antibody) [2]?
**A.** 1.8 nM

**Q.** And the EC50 of cytotoxicity, HPAC cells (with vc-MMAE secondary antibody) [2]?
**A.** 0.21 nM

**Q.** And the EC50 of cytotoxicity, HPAF2 cells (with vc-MMAE secondary antibody) [2]?
**A.** < 1 nM

**Q.** What about the EC50 of cytotoxicity, KYSE70 cells (with vc-MMAE secondary antibody) [2] of the same binder?
**A.** 0.13 nM

**Q.** What about the EC50 of cytotoxicity, KYSE150 cells (with vc-MMAE secondary antibody) [2] of the same binder?
**A.** 1.6 nM

**Q.** And the EC50 of cytotoxicity, LOVO cells (with vc-MMAE secondary antibody) [2]?
**A.** < 1 nM

**Q.** And the EC50 of cytotoxicity, LS174T cells (with vc-MMAE secondary antibody) [2]?
**A.** 1 nM

**Q.** What about the EC50 of cytotoxicity, LS411N cells (with vc-MMAE secondary antibody) [2] of the same binder?
**A.** < 1 nM

**Q.** What about the EC50 of cytotoxicity, PC3 cells (with vc-MMAE secondary antibody) [2] of the same binder?
**A.** < 1 nM

**Q.** And the EC50 of cytotoxicity, RT11-2/84 cells (with vc-MMAE secondary antibody) [2]?
**A.** 1.94 nM

**Q.** What about the EC50 of cytotoxicity, SCC1 cells (with vc-MMAE secondary antibody) [2] of the same binder?
**A.** 0.14 nM

**Q.** And the EC50 of cytotoxicity, SCC9 cells (with vc-MMAE secondary antibody) [2]?
**A.** 0.37 nM

**Q.** What about the EC50 of cytotoxicity, SCC25 cells (with vc-MMAE secondary antibody) [2] of the same binder?
**A.** 0.2 nM

**Q.** And the EC50 of cytotoxicity, SKOV3 cells (with vc-MMAE secondary antibody) [2]?
**A.** 0.95 nM

**Q.** And the EC50 of cytotoxicity, SW1417 cells (with vc-MMAE secondary antibody) [2]?
**A.** 0.8 nM

**Q.** What about the EC50 of cytotoxicity, aspc1 cells (with vc-MMAE secondary antibody) [2] of the same binder?
**A.** 20.5 nM

**Q.** What about the EC50 of cytotoxicity, miapaca1 cells (with vc-MMAE secondary antibody) [2] of the same binder?
**A.** 0.65 nM

**Q.** And the EC50 of cytotoxicity, sw48 cells (with vc-MMAE secondary antibody) [2]?
**A.** < 1 nM

**Q.** And the EC50 of cytotoxicity, sw480 cells (with vc-MMAE secondary antibody) [2]?
**A.** < 1 nM

**Q.** What about the EC50 of in vitro cytotoxicity, A253 cells (with vc-MMAE secondary antibody) [2] of the same binder?
**A.** < 1 nM

**Q.** What about the EC50 of in vitro cytotoxicity, AGS cells (with vc-MMAE secondary antibody) [2] of the same binder?
**A.** 0.09 nM

**Q.** And the EC50 of in vitro cytotoxicity, BHY cells (with vc-MMAE secondary antibody) [2]?
**A.** < 1 nM

**Q.** What about the EC50 of in vitro cytotoxicity, Detroit562 cells (with vc-MMAE secondary antibody) [2] of the same binder?
**A.** 0.008 nM

**Q.** And the EC50 of in vitro cytotoxicity, EFO-21 cells (with vc-MMAE secondary antibody) [2]?
**A.** 1.4 nM

**Q.** And the EC50 of in vitro cytotoxicity, ESO26 cells (with vc-MMAE secondary antibody) [2]?
**A.** 0.06 nM

**Q.** What about the EC50 of in vitro cytotoxicity, FLO-1 cells (with vc-MMAE secondary antibody) [2] of the same binder?
**A.** 0.51 nM

**Q.** And the EC50 of in vitro cytotoxicity, H69 cells (with vc-MMAE secondary antibody) [2]?
**A.** 1 nM

**Q.** What about the EC50 of in vitro cytotoxicity, H226 cells (with vc-MMAE secondary antibody) [2] of the same binder?
**A.** 0.45 nM

**Q.** And the EC50 of in vitro cytotoxicity, H292 cells (with vc-MMAE secondary antibody) [2]?
**A.** 0.07 nM

**Q.** And the EC50 of in vitro cytotoxicity, H358 cells (with vc-MMAE secondary antibody) [2]?
**A.** 0.09 nM

**Q.** And the EC50 of in vitro cytotoxicity, H520 cells (with vc-MMAE secondary antibody) [2]?
**A.** 11.2 nM

**Q.** And the EC50 of in vitro cytotoxicity, H1581 cells (with vc-MMAE secondary antibody) [2]?
**A.** 0.039 nM

**Q.** And the EC50 of in vitro cytotoxicity, H1975 cells (with vc-MMAE secondary antibody) [2]?
**A.** 0.09 nM

**Q.** And the EC50 of in vitro cytotoxicity, H2052 cells (with vc-MMAE secondary antibody) [2]?
**A.** 0.03 nM

**Q.** What about the EC50 of in vitro cytotoxicity, H2405 cells (with vc-MMAE secondary antibody) [2] of the same binder?
**A.** 0.3 nM

**Q.** What about the EC50 of in vitro cytotoxicity, H2444 cells (with vc-MMAE secondary antibody) [2] of the same binder?
**A.** 1.8 nM

**Q.** What about the EC50 of in vitro cytotoxicity, H2452 cells (with vc-MMAE secondary antibody) [2] of the same binder?
**A.** 0.94 nM

**Q.** What about the EC50 of in vitro cytotoxicity, HCC 70 cells (with vc-MMAE secondary antibody) [2] of the same binder?
**A.** 0.94 nM

**Q.** And the EC50 of in vitro cytotoxicity, HCC1143 cells (with vc-MMAE secondary antibody) [2]?
**A.** < 1 nM

**Q.** What about the EC50 of in vitro cytotoxicity, HCC 1806 cells (with vc-MMAE secondary antibody) [2] of the same binder?
**A.** 0.68 nM

**Q.** And the EC50 of in vitro cytotoxicity, HCC1937 cells (with vc-MMAE secondary antibody) [2]?
**A.** < 1 nM

**Q.** What about the EC50 of in vitro cytotoxicity, HCC1954 cells (with vc-MMAE secondary antibody) [2] of the same binder?
**A.** < 1 nM

**Q.** What about the EC50 of in vitro cytotoxicity, HCT 116 cells (with vc-MMAE secondary antibody) [2] of the same binder?
**A.** 1.8 nM

**Q.** What about the EC50 of in vitro cytotoxicity, HPAC cells (with vc-MMAE secondary antibody) [2] of the same binder?
**A.** 0.21 nM

**Q.** And the EC50 of in vitro cytotoxicity, HPAF2 cells (with vc-MMAE secondary antibody) [2]?
**A.** < 1 nM

**Q.** What about the EC50 of in vitro cytotoxicity, HT29 (WIDR) cells (with vc-MMAE secondary antibody) [2] of the same binder?
**A.** 0.87 nM

**Q.** What about the EC50 of in vitro cytotoxicity, Hs 746T cells (with vc-MMAE secondary antibody) [2] of the same binder?
**A.** 0.06 nM

**Q.** What about the EC50 of in vitro cytotoxicity, KYSE70 cells (with vc-MMAE secondary antibody) [2] of the same binder?
**A.** 0.13 nM

**Q.** What about the EC50 of in vitro cytotoxicity, KYSE150 cells (with vc-MMAE secondary antibody) [2] of the same binder?
**A.** 0.88 nM

**Q.** And the EC50 of in vitro cytotoxicity, KYSE410 cells (with vc-MMAE secondary antibody) [2]?
**A.** 1.35 nM

**Q.** What about the EC50 of in vitro cytotoxicity, LOVO cells (with vc-MMAE secondary antibody) [2] of the same binder?
**A.** < 1 nM

**Q.** And the EC50 of in vitro cytotoxicity, LS174T cells (with vc-MMAE secondary antibody) [2]?
**A.** 1 nM

**Q.** What about the EC50 of in vitro cytotoxicity, LS411N cells (with vc-MMAE secondary antibody) [2] of the same binder?
**A.** < 1 nM

**Q.** And the EC50 of in vitro cytotoxicity, MSTO-211H cells (with vc-MMAE secondary antibody) [2]?
**A.** 0.37 nM

**Q.** What about the EC50 of in vitro cytotoxicity, OACM5.1 C cells (with vc-MMAE secondary antibody) [2] of the same binder?
**A.** 1.1 nM

**Q.** What about the EC50 of in vitro cytotoxicity, OE33 cells (with vc-MMAE secondary antibody) [2] of the same binder?
**A.** 0.29 nM

**Q.** And the EC50 of in vitro cytotoxicity, PC3 cells (with vc-MMAE secondary antibody) [2]?
**A.** < 1 nM

**Q.** And the EC50 of in vitro cytotoxicity, RT11-2/84 cells (with vc-MMAE secondary antibody) [2]?
**A.** 1.94 nM

**Q.** What about the EC50 of in vitro cytotoxicity, SCC1 cells (with vc-MMAE secondary antibody) [2] of the same binder?
**A.** 0.14 nM

**Q.** And the EC50 of in vitro cytotoxicity, SCC9 cells (with vc-MMAE secondary antibody) [2]?
**A.** 0.37 nM

**Q.** What about the EC50 of in vitro cytotoxicity, SCC25 cells (with vc-MMAE secondary antibody) [2] of the same binder?
**A.** 0.2 nM

**Q.** What about the EC50 of in vitro cytotoxicity, SK-GT-4 cells (with vc-MMAE secondary antibody) [2] of the same binder?
**A.** < 0.1 nM

**Q.** What about the EC50 of in vitro cytotoxicity, SKBR3 cells (with vc-MMAE secondary antibody) [2] of the same binder?
**A.** 0.38 nM

**Q.** And the EC50 of in vitro cytotoxicity, SKOV3 cells (with vc-MMAE secondary antibody) [2]?
**A.** 0.95 nM

**Q.** What about the EC50 of in vitro cytotoxicity, SNU-1 cells (with vc-MMAE secondary antibody) [2] of the same binder?
**A.** 0.21 nM

**Q.** What about the EC50 of in vitro cytotoxicity, SNU-5 cells (with vc-MMAE secondary antibody) [2] of the same binder?
**A.** 0.11 nM

**Q.** And the EC50 of in vitro cytotoxicity, SNU-16 cells (with vc-MMAE secondary antibody) [2]?
**A.** 1.14 nM

**Q.** And the EC50 of in vitro cytotoxicity, SW1417 cells (with vc-MMAE secondary antibody) [2]?
**A.** 0.8 nM

**Q.** And the EC50 of in vitro cytotoxicity, aspc1 cells (with vc-MMAE secondary antibody) [2]?
**A.** 20.5 nM

**Q.** And the EC50 of in vitro cytotoxicity, miapaca1 cells (with vc-MMAE secondary antibody) [2]?
**A.** 0.65 nM

**Q.** And the EC50 of in vitro cytotoxicity, sw48 cells (with vc-MMAE secondary antibody) [2]?
**A.** < 1 nM

**Q.** And the EC50 of in vitro cytotoxicity, sw480 cells (with vc-MMAE secondary antibody) [2]?
**A.** < 1 nM

Reference: US20180303952A1
